Assay results as given in patent US11945858B2, “Antibodies and antibody fragments against HNAV1.7 channel and their use in pain and cancer indications” (NATIONAL RESEARCH COUNCIL OF CANADA, priority 2018, dated 2024).
Where “and” joins values, the source holds several entries; their conditions need not be identical. Equal entries are not always repeated.

Tests used:
[1] = system: CFA-induced thermal hyperalgesia; experiment: Hargreaves Model of Hyperalgesia in rats; format: in vivo, rat
Procedure: Hargreaves Model of Hyperalgesia in rats. Rats aged 4-6 weeks (weight range, 180-220 g) were used for intraplantar (ipl) administrations of various antibodies and evaluation of their efficacy in the Hargreaves model of inflammatory pain. Chronic inflammatory pain is induced by injecting a low volume (50 μl) of complete Freund's adjuvant (CFA; heat-killed M. tuberculosis—Sigma, St. Louis, Mo.—suspended in oil:saline 2:1 emulsion) into the right hind paw. The paw withdrawal latency in response to the application of a radiant stimulus onto the plantar surface of both right and left paw was measured using the plantar Analgesia Meter equipment for paw stimulation (IITC Life Science, Woodland Hills, Calif.). The time taken by the animal to respond by licking or flicking its paw is interpreted as positive response (paw withdrawal latency). After 48 h of the CFA injection, the baseline for latency paw withdrawal was measured and the mAbs tested. […] A cut-off time (20 sec) is established at the end of which the heat source shuts off automatically to avoid tissue damage. Animals were kept (randomized) one per cage and staff performing pain experiments are blinded to the content of injectable compounds. Percentage of maximum possible effect (% MPE) was calculated using the formula % MPE=(Test Latency−Baseline Latency)×100/(Cut-off−Baseline Latency).

[2] = system: OD1-evoked Nav1.7-mediated spontaneous pain behaviours; format: in vivo, mouse; settings: 100 μg, injected 60 minutes prior to OD1; 20 min after the injection
FC5 = experiment: Surface Plasmon Resonance for VHH antibodies, immobilized FC5; format: binding; settings: SPR; 25 C
Procedure: (§1) Surface Plasmon Resonance for VHH antibodies. For SPR experiments, IMAC-purified VHHs DI-D, DI-4, DI-16, DI-28 and DI-48 were passed through a Superdex 75 (GE Healthcare) column for SEC purification in HBS-EP+buffer (10 mM HEPES, pH 7.4, containing 150 mM NaCl, 3 mM EDTA and 0.05% P20), connected to an AKTAPurifier (GE Healthcare) at a flow rate of 1 ml/min. Monomeric VHH fractions were collected and protein concentration determined by measuring A280 measurement. Using a Biacore T200 instrument (GE Healthcare), approximately 500-1000 RUs of FC5DIE3IR, FC5 and an irrelevant VHH (2A3-H4) were immobilized on a CM5 Series S sensor chip (GE Healthcare) at pH 4.0 using standard amine coupling according to the manufacturer's instructions (GE Healthcare). […] Surfaces were regenerated by washing with a 120 s pulse of 10 mM glycine pH 1.5. Data were analyzed with Biacore T200 Software v 3.0 and affinities determined using steady state binding or a 1:1 binding model.

2A3-H4 = experiment: Surface Plasmon Resonance for VHH antibodies, immobilized irrelevant VHH 2A3-H4; format: binding; settings: SPR; 25 C
Procedure: as §1

FC5DIE3IR = target: T1, FC5DIE3IR (Homo sapiens, UniProt Q15858); experiment: Surface Plasmon Resonance for VHH antibodies, immobilized FC5DIE3IR; format: binding; settings: for Kd / Rmax (RU) / ka / kd: immobilized FC5DIE3IR; for ka / kd: 25 C
T1 construct: The supernatant was collected and loaded on a 5 ml MabSelect™ SuRe™ column; made in house; host or cells: CHO-3E7 (transient, pTT5 vector), purified from supernatant
Procedure: as §1

Chain of FC5 (as listed by the source): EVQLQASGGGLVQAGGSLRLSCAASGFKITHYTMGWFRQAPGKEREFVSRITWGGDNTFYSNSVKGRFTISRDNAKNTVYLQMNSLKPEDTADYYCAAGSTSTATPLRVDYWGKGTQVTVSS

Molecule: CC(=O)Nc1cccc(Nc2ncnc(N3CCC(OCc4ccc(OC(F)(F)F)cc4)CC3)n2)c1C [TC-N1752, reference compound]
- Percentage of effect after injection (on left paw withdrawal) ([1]; 100 μg intraplantar, 0 h): 0%
- Latency paw withdrawal ([1]; 100 μg intraplantar, 1 h): 8.15 ± 1.6 s and 8.15 ± 2.60 s
- Percentage of effect after injection (on left paw withdrawal) ([1]; 100 μg intraplantar, 1 h): 37.01%
- Latency paw withdrawal ([1]; 100 μg intraplantar, 2 h): 11.17 ± 1.19 s
- Percentage of effect after injection (on left paw withdrawal) ([1]; 100 μg intraplantar, 2 h): 44.77%
- Latency paw withdrawal ([1]; 100 μg intraplantar, 4 h): 11.90 ± 0.99 s
- Percentage of effect after injection (on left paw withdrawal) ([1]; 100 μg intraplantar, 4 h): 49.05%
- Percentage of maximum possible effect (% MPE) ([1]; 100 μg intraplantar, 4 h (FIG. 27B)): 46.47%±7.14
- Time spent in pain behaviors (saline plus OD1 = 100%) [2]: 51.62%±4.85

Molecule: TLESEEDFRKYFYYLEGSKDALLCGFSTDS (Peptide #2 = 30 amino acid sequence located on loop3 of the D1 domain of the Nav1.7 polypeptide) [P2]
- Latency paw withdrawal time ([1]; peptide 375 μg co-injected with 3A8 75 μg, intraplantar (FIG. 18)): 6.76 ± 0.32 s
- 3A8-induced reversal of hyperalgesia (% MPE) ([1]; peptide 375 μg co-injected with 3A8 75 μg, intraplantar, 4 h): 13.49%±2.62

B1: DI-28: VHH from FC5DIE3IR llama immune library; SEQ ID NO: 54 (protein)
VHH: QAQVQLVESGGGLVQAGGSLRLSCAASGRTFSSSGMGWFRQAPGKDRELVAGISWSGDSAYYANSVAGRFTISRDNINNTVYLQMNSLKPEDTAVYYCAARQGGRNYATSPREYDYWGQGTQVTVSS
modifications: DI-28
- Binding to immobilized FC5 (comment, in words) (FC5): No binding
- Binding to immobilized 2A3-H4 (comment, in words) (2A3-H4): No binding
- Kd (FC5DIE3IR): 4.4 nM
- Rmax (RU) (FC5DIE3IR): 318.3 RU
- ka (FC5DIE3IR): 461000 M⁻¹ s⁻¹
- kd (FC5DIE3IR): 0.00205 s⁻¹

B2: DI-16: VHH from FC5DIE3IR llama immune library; SEQ ID NO: 49; clone DI-11 has identical sequence (protein)
VHH: QAQVQLVESGGGLVQAGGSLRLSCAASGRTVSSYTMGWFRQAPGKERRFVATVNSSGRGTHYADSVKGRFTISRDNAKNTVYLQMNSLKPEDTAVYYCAAAPYPDGSLGPGYDYWGQGTQVTVSS
modifications: DI-16
- Binding to immobilized FC5 (comment, in words) (FC5): No binding
- Binding to immobilized 2A3-H4 (comment, in words) (2A3-H4): No binding
- Kd (FC5DIE3IR): 4.3 nM
- Rmax (RU) (FC5DIE3IR): 317.9 RU
- ka (FC5DIE3IR): 619000 M⁻¹ s⁻¹
- kd (FC5DIE3IR): 0.00266 s⁻¹

B3: DI-4: VHH from FC5DIE3IR llama immune library; SEQ ID NO: 47 (protein)
VHH: QVQLVESGGGLVQPGGSLRLSCAASGFTFSNYWMYWVRQAPGKGLERVSSIYISGGNTYYADSVKGRFTISRDNAKNTLYLQMNSLKSEDTAVYYCVKGDTFGGMDYWGKGTQVTVSS
modifications: DI-4
- Binding to immobilized FC5 (comment, in words) (FC5): No binding
- Binding to immobilized 2A3-H4 (comment, in words) (2A3-H4): Very low non-
- Rmax (RU) (FC5DIE3IR): 469.2 RU

B4: DI-48: VHH from FC5DIE3IR llama immune library; SEQ ID NO: 59 (protein)
VHH: QAQVQLVESGGGLVQAGGSLRLSCAASGRTFSTYVMGWFRQTPGKEREFVAGFSWSGDYAIYVNSVKGRFTISRDNAKNTVYLQMNSLRPEDTAVYYCAARQRGGYSGRSYYTGRNDYEYWGQGTQVTVSS
modifications: DI-48
- Binding to immobilized FC5 (comment, in words) (FC5): No binding
- Binding to immobilized 2A3-H4 (comment, in words) (2A3-H4): Very low
- Binding to immobilized FC5DIE3IR (comment, in words) (FC5DIE3IR; SPR): Low affinity,
